Here are results for six molecules from article PMC4513882.

One data set deals with SAMHD1 T592E (human, UniProt Q9Y3Z3 1-626, T592E). In words: fluorescence anisotropy. Background: Fluorescence polarisation rises when a labelled molecule tumbles more slowly, as on binding a larger partner.
The next data set concerns the target SAMHD1 Q548A (human, UniProt Q9Y3Z3 1-626, Q548A). Nature of the data set: fluorescence anisotropy.
The target of data set [1] is T1, SAMHD1 wt (human, UniProt Q9Y3Z3 1-626). In words: fluorescence anisotropy.
For data set [2], the target named is T1, SAMHD1 wt. Nature of the data set: fluorescence anisotropy. This is another data set of the same source.
The next data set concerns the target SAMHD1 R451E (human, UniProt Q9Y3Z3 1-626, R451E). Nature of the data set: fluorescence anisotropy.
Another data set deals with SAMHD1 ΔSAM (Δ112) (human, UniProt Q9Y3Z3 113-626, del1-112). Nature of the data set: fluorescence anisotropy.
Data set [3] deals with T1, SAMHD1 wt. In words: competition.
Data set [4] concerns the target T1, SAMHD1 wt. In words: competition. This is another data set of the same source.

Like-named read-outs stand apart in the source and are kept apart here.

T1 sequence (Q9Y3Z3 whole entry): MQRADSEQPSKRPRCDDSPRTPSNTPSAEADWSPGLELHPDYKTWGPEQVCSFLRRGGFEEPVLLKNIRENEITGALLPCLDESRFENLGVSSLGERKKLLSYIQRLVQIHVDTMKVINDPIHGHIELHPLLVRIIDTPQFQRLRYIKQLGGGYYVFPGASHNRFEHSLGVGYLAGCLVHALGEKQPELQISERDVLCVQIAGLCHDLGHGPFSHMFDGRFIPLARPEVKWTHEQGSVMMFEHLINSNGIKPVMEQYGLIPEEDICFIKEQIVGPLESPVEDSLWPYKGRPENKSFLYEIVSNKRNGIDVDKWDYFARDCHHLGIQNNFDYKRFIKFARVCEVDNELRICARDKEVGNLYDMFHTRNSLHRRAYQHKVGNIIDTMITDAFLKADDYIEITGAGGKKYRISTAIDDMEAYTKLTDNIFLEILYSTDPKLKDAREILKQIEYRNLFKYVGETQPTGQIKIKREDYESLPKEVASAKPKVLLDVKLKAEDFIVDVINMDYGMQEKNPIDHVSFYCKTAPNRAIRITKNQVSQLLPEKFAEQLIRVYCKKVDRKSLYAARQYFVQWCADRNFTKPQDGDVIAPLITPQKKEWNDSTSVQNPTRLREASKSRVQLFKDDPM
SAMHD1 Q548A, sequence (Q9Y3Z3 whole entry Q548A): as the sequence (Q9Y3Z3 whole entry) above, with Q548A counted along it
SAMHD1 T592E, sequence (Q9Y3Z3 whole entry T592E): as the sequence (Q9Y3Z3 whole entry) above, with T592E counted along it
SAMHD1 R451E, sequence (Q9Y3Z3 whole entry R451E): as the sequence (Q9Y3Z3 whole entry) above, with R451E counted along it
SAMHD1 ΔSAM (Δ112), sequence (Q9Y3Z3 113-626, stated change not applied): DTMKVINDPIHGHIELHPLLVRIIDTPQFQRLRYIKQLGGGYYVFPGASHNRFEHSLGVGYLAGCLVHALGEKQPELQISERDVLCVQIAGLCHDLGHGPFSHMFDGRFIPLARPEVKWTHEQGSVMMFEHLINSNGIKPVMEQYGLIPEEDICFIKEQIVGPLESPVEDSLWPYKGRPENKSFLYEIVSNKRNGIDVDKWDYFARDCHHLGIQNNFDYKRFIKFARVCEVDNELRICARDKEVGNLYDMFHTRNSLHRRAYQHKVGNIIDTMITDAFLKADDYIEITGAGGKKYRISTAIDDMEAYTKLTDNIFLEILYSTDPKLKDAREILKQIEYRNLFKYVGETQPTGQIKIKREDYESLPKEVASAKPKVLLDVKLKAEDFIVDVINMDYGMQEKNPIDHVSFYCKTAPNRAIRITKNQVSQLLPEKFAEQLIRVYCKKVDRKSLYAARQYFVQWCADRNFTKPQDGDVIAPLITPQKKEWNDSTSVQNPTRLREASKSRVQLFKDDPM

B1: ssDNA57 (ssDNA)
DNA: TGGAGAATCCCGGTGCCGAGGCCGCTCAATTGGTCGTAGACAGCTCTAGCACCGCTT
With B1, the binding result with SAMHD1 T592E and in the data set with SAMHD1 Q548A was “binds” throughout. The “apparent K (half saturation)” value with SAMHD1 wt [1] amounted to 450 ± 130 nM.

B2: dsDNA57 (dsDNA)
DNA 1: TGGAGAATCCCGGTGCCGAGGCCGCTCAATTGGTCGTAGACAGCTCTAGCACCGCTT
DNA 2: AAGCGGTGCTAGAGCTGTCTACGACCAATTGAGCGGCCTCGGCACCGGGATTCTCCA
Turning to B2, the “apparent K (half saturation)” value with SAMHD1 wt [2] is 18 ± 2 µM.

B3: RNA:DNA40 (DNA:RNA)
RNA: CACCAAUUCGUCUUAGGGUUAAUCUUGAAGCUAGAGUUAA
DNA: TTAACTCTAGCTTCAAGATTAACCCTAAGACGAATTGGTG
As to B3, in the data set with SAMHD1 wt [1], the “apparent K (half saturation)” value is 2000 ± 400 nM.

Consider CACCAAUUCGUCUUAGGGUUAAUCUUGAAGCUAGAGUUAA (ssRNA) [ssRNA40], for which the binding result with SAMHD1 T592E, with SAMHD1 R451E, with SAMHD1 Q548A and with SAMHD1 ΔSAM (Δ112) was “binds” in each case.

B4: ssDNA90 (ssDNA)
DNA: TGGAGAATCCCGGTGCCGAGGCCGCTCAATTGGTCGTAGACAGCTCTAGCACCGCTTGAAGGAGATATACATACATTAATTGCGTTGCGC
For B4, the binding result with SAMHD1 wt [3] is “binds”.

B5: ssRNA90 (ssRNA)
RNA: GGGGAAUUGUGAGCGGAUAACAAUUCCCCUCUAGAAAUAAUUUUGUUUAACUUUAAGAAGGAGAUAUACAUAUGCACCAUCAUCAUCAUC
On to B5, for which the binding result with SAMHD1 wt [4] is listed as “binds”.
